This passage reports stoichiometry N results from article PMC10102533.

The target in test [1] is PGLYRP1-mIgG1-Fc (not stated | mouse). The test can be described thus: SDS-PAGE and Western blot with or without reducing agent. (In general: Immunoblotting shows a protein as a band on a membrane.)
Test [2] concerns the target mouse IgG2a-Fc (Fc only) (mouse). The description is as above.

A word on the stoichiometry N: it is a count of units in the complex or per binding partner. For the substance PGLYRP1-mIgG1-Fc (Fc fusion), the stoichiometry N in test [1] amounted to 2. For “mouse IgG2a-Fc (Fc only) (domain or fragment)”, the stoichiometry N in test [2] was found to be 2.
